Paper PMC5602538, “Assessment of the Drug Interaction Potential of Unconjugated and GalNAc3-Conjugated 2′-MOE-ASOs” (Molecular Therapy. Nucleic Acids, 2017)
{GalNAc3} = trishexylamino-C6 triantennary GalNAc conjugate

Experiments:
CYP1A2 mRNA = CYP1A2 mRNA induction in plated human hepatocytes; conditions: ASO 100 μM, human hepatocytes 72 hr, vs PBS 1% vehicle, mean ± SD of triplicate
Method: (§1) Upon receipt, sandwich-cultured cryopreserved human hepatocytes (with Matrigel) plated on collagen-coated 24-well plates were inspected under a microscope for general morphology and viability. Fresh culture medium (OptiCulture Hepatocyte Media) was added to each plate that passed the visual inspection. The plates were then placed in an incubator set to 37°C with 5% carbon dioxide (CO2) for overnight acclimation. […] During this time, cells in parallel wells were also treated with 50.0 μM omeprazole (inducer of CYP1A2), 1,000 μM phenobarbital (inducer of CYP2B6), or 10.0 μM rifampicin (inducer of CYP3A4) in triplicate, respectively.
After collection of the supernatant for catalytic analysis, the remaining cells were washed and lysed with QIAGEN Buffer RLT from the QIAGEN RNeasy Kit. […]
(§2) The activity of each CYP enzyme was measured by comparing the peak area ratio of the corresponding product to the peak area ratio of the internal standard. The fold induction was calculated by dividing the peak area ratio of each individual well from the treatment group by the mean of the peak area ratios obtained from the vehicle control wells. […] The ΔCƬ was calculated as follows: ΔCƬ = CƬ (CYP) − CƬ (GAPDH). […] The ΔΔCƬ was calculated as follows: ΔΔCƬ = Δ CƬ (Treatment) − Δ CƬ (Vehicle). The fold induction of the target CYP was calculated using the following equation: Fold=2^-ΔΔCT.

OATP1B3 = system: T1, OATP1B3; experiment: OATP1B3 inhibition study in MDCK cells; type: in vitro ADME; conditions: 100 μM ASO, 2 μM CCK-8
T1 construct: expressed in transfected cells; host or cells: MDCK-II
Method: A 96-well cell culture plate containing a monolayer of MDCK-II cells grown on a permeable support and a corresponding receiver tray was used. The basolateral compartment of the culture plate and wells were washed with warm HBSS three times, with wells of the culture plate serving as the apical compartment. The wash was aspirated by adding 150 μL of 37°C HBSS to both compartments. Plates were incubated at 37°C with orbital shaking at 60 rpm for 15 min for OAT1, OAT3, OCT1, OCT2, OATP1B1, and OATP1B3 (±5 min). The pre-incubation buffer from both compartments was aspirated and 150 μL of the following was added to the basal compartment. […] Samples containing probe substrate were added to 200 μL of scintillation fluid and counted on a 1450 Microbeta (PerkinElmer), whereas samples containing the test article were kept frozen. Test article concentrations, including control samples, were evaluated by an LC-MS method.
Signal to noise for probe substrates was calculated by dividing the uptake of the probe substrate in transporter-expressing cells by the uptake of probe substrate in control cells not expressing the transporter of interest. […]

CYP3A4 = conditions: ASO 100 μM, human hepatocytes 72 hr, vs PBS 1% vehicle, mean ± SD of triplicate
Method: as §1
(§3) The plates were then incubated at 37°C with 5% CO2 for 60 min. […] Aliquots of the supernatants were analyzed by LC-MS/MS for the formation of acetaminophen, hydroxyl-bupropion, or hydroxyl-midazolam as markers for enzyme activity of CYP1A2, CYP2B6, and CYP3A4, respectively.
as §2, with “The fold induction of the target CYP was calculated using the following equation: Fold=2^-ΔΔCT.” left out

OAT3 = system: T2, OAT3; experiment: OAT3 inhibition study in MDCK cells; type: in vitro ADME; conditions: 100 μM ASO, 10 μM p-aminohippurate
T2 construct: expressed in transfected cells; host or cells: MDCK-II
Method: A 96-well cell culture plate containing a monolayer of MDCK-II cells grown on a permeable support and a corresponding receiver tray was used. The basolateral compartment of the culture plate and wells were washed with warm HBSS three times, with wells of the culture plate serving as the apical compartment. The wash was aspirated by adding 150 μL of 37°C HBSS to both compartments. […] The pre-incubation buffer from both compartments was aspirated and 150 μL of the following was added to the basal compartment. […] OATP1B1, 2 μM [^3H]-estradiol-17 β-D-glucuronide; and OATP1B3, 2 μM [^3H]-cholecystokinin octapeptide (CCK-8). […] Plates were incubated at 37°C with orbital shaking at 60 rpm for 5 min. Both sides of the permeable support were washed four times with ice-cold PBS and 60 μL of cell extraction solution was added to each well. Plates were agitated for 15 min at 120 rpm, after which a 30-μL sample of the extract was collected. […] Test article concentrations, including control samples, were evaluated by an LC-MS method. Signal to noise for probe substrates was calculated by dividing the uptake of the probe substrate in transporter-expressing cells by the uptake of probe substrate in control cells not expressing the transporter of interest.

CYP1A2 = CYP1A2 enzyme activity induction in plated human hepatocytes; conditions: ASO 100 μM, human hepatocytes 72 hr, vs PBS 1% vehicle, mean ± SD of triplicate
Method: as §1, §3
as §2, with “The fold induction of the target CYP was calculated using the following equation: Fold=2^-ΔΔCT.” left out

ISIS 681257: 20-mer 2′-MOE gapmer PS/PO mixed backbone ASO conjugated to 5′-trishexylamino GalNAc3, targets Lp(a), sequence TGCTCCGTTGGTGCTTGTTC (5' {GalNAc3}, sugars by position and backbone not given here; 2'-MOE gapmer with mixed PS/PO backbone)
Fold induction of CYP1A2 mRNA (CYP1A2 mRNA): 1.71 ± 0.0853 fold
Enhancement of probe substrate uptake, OATP1B3 (OATP1B3): 38.3%
Fold induction of CYP3A4 enzyme activity (CYP3A4): 1.67 ± 0.310 fold
Enhancement of probe substrate uptake, OAT3 (OAT3): 18.2%
Fold induction of CYP1A2 enzyme activity (CYP1A2): 1.40 ± 0.116 fold
